This assay concerns the target T1, α-thrombin (Homo sapiens, UniProt P00734).
T1 construct: α-Thrombin is the active form of the plasma serine protease zymogen, prothrombin; purchased Enzyme Research Labs (South Bend, Ind.)
Kind of assay: Confirmatory binding assay in column chromatographic format, peptides synthesized on A-Totda-Toyopearl. The note with it: for Absorbance, 280 nm 1M NaCl Eluate / Absorbance, 280 nm 2% Acetic Acid: integration of A280; for binding of thrombin to peptide resin (in words): summary of Table 2. As to the method: Confirmatory binding assays were performed in a column chromatographic format on a microbore HPLC using individual peptide sequences synthesized directly onto the Toyopearl 650 M Chelate resin which had been modified with Totda followed by an alanine residue (A-Totda-Toyopearl), at a final substitution density of 0.2 mmol/g resin. […] The endpoint was a dose-dependent increase in the acid eluate in the thrombin contactings, and quantification was by integration of the absorbance at 280 nm.

Ends that are not written are not given here.

Take “ERPYHG (not fully specified (C-terminus)) [peptide synthesized on A-Totda-Toyopearl resin]”: the “binding of thrombin to peptide resin (in words)” value (from here on “binding of thrombin”) was “not”. For the same substance, for the setting “50 μg α-thrombin applied”, the “Absorbance, 280 nm 1M NaCl Eluate” value is 0.00 and the “Absorbance, 280 nm 2% Acetic Acid” value is 0.00. Moreover, where the note is “100 μg α-thrombin applied”, the “Absorbance, 280 nm 1M NaCl Eluate” value is reported as 0.18 and the “Absorbance, 280 nm 2% Acetic Acid” value is 0.00. In addition, for the setting “200 μg α-thrombin applied”, the “Absorbance, 280 nm 1M NaCl Eluate” value amounted to 0.69 and the “Absorbance, 280 nm 2% Acetic Acid” value is listed as 0.00.

In the case of “ERPYKG (not fully specified (C-terminus)) [peptide synthesized on A-Totda-Toyopearl resin]”, the “binding of thrombin” value is given as “bound thrombin”. For the setting “50 μg α-thrombin applied”, the “Absorbance, 280 nm 1M NaCl Eluate” value stood at 0.23 and the “Absorbance, 280 nm 2% Acetic Acid” value was determined as 0.41. For the same substance, under “100 μg α-thrombin applied”, the “Absorbance, 280 nm 1M NaCl Eluate” value was found to be 0.23 and the “Absorbance, 280 nm 2% Acetic Acid” value is 0.99. For the same substance, where the note is “200 μg α-thrombin applied”, the “Absorbance, 280 nm 1M NaCl Eluate” value was determined as 0.26 and the “Absorbance, 280 nm 2% Acetic Acid” value is given as 2.38.

Turning to “FEPANP (not fully specified (C-terminus)) [peptide synthesized on A-Totda-Toyopearl resin]”, the “binding of thrombin” value is “bound thrombin”. Moreover, under “50 μg α-thrombin applied”, the “Absorbance, 280 nm 1M NaCl Eluate” value came to 0.00 and the “Absorbance, 280 nm 2% Acetic Acid” value is listed as 0.15. Further, under “100 μg α-thrombin applied”, the “Absorbance, 280 nm 1M NaCl Eluate” value worked out at 0.00 and the “Absorbance, 280 nm 2% Acetic Acid” value stood at 0.29. Further, where the note is “200 μg α-thrombin applied”, the “Absorbance, 280 nm 1M NaCl Eluate” value is listed as 0.10 and the “Absorbance, 280 nm 2% Acetic Acid” value was 0.45.

In the case of “GFRKGP (not fully specified (C-terminus)) [peptide synthesized on A-Totda-Toyopearl resin]”, the “binding of thrombin” value is reported as “bound thrombin”. Further, under “50 μg α-thrombin applied”, the “Absorbance, 280 nm 1M NaCl Eluate” value came to 0.12 and the “Absorbance, 280 nm 2% Acetic Acid” value is listed as 0.41. Moreover, under “100 μg α-thrombin applied”, the “Absorbance, 280 nm 1M NaCl Eluate” value turned out to be 0.15 and the “Absorbance, 280 nm 2% Acetic Acid” value is recorded as 0.77. Besides, for the setting “200 μg α-thrombin applied”, the “Absorbance, 280 nm 1M NaCl Eluate” value is 0.25 and the “Absorbance, 280 nm 2% Acetic Acid” value was 1.71.

With GFRNGP [GERNGP], the “binding of thrombin” value is “bound thrombin”. For the setting “50 μg α-thrombin applied”, the “Absorbance, 280 nm 1M NaCl Eluate” value stood at 0.00 and the “Absorbance, 280 nm 2% Acetic Acid” value is reported as 0.71. Where the note is “100 μg α-thrombin applied”, the “Absorbance, 280 nm 1M NaCl Eluate” value is recorded as 0.00 and the “Absorbance, 280 nm 2% Acetic Acid” value is recorded as 1.42. For the same substance, where the note is “200 μg α-thrombin applied”, the “Absorbance, 280 nm 1M NaCl Eluate” value is on record as 0.13 and the “Absorbance, 280 nm 2% Acetic Acid” value amounted to 2.73.

Consider HQLWGSH, for which the “binding of thrombin” value is “enhanced binding”. Also, where the note is “50 μg α-thrombin applied”, the “Absorbance, 280 nm 1M NaCl Eluate” value is on record as “np” and the “Absorbance, 280 nm 2% Acetic Acid” value was 0.58. Besides, where the note is “100 μg α-thrombin applied”, the “Absorbance, 280 nm 1M NaCl Eluate” value is on record as “np” and the “Absorbance, 280 nm 2% Acetic Acid” value came out at 0.95. For the setting “200 μg α-thrombin applied”, the “Absorbance, 280 nm 1M NaCl Eluate” value is “np” and the “Absorbance, 280 nm 2% Acetic Acid” value is recorded as 1.76.

As for LFAPTL, the “binding of thrombin” value is listed as “bound thrombin”. Besides, for the setting “50 μg α-thrombin applied”, the “Absorbance, 280 nm 1M NaCl Eluate” value is given as “np” and the “Absorbance, 280 nm 2% Acetic Acid” value was 0.18. Where the note is “100 μg α-thrombin applied”, the “Absorbance, 280 nm 1M NaCl Eluate” value was “np” and the “Absorbance, 280 nm 2% Acetic Acid” value is reported as 0.44. Further, where the note is “200 μg α-thrombin applied”, the “Absorbance, 280 nm 1M NaCl Eluate” value is “np” and the “Absorbance, 280 nm 2% Acetic Acid” value stood at 1.25.

Turning to “LTPFAV (not fully specified (C-terminus)) [peptide synthesized on A-Totda-Toyopearl resin]”, the “Absorbance, 280 nm 1M NaCl Eluate” value is given as “np” (50 μg α-thrombin applied), “np” (100 μg α-thrombin applied) and “np” (200 μg α-thrombin applied). Besides, the “Absorbance, 280 nm 2% Acetic Acid” value is, setting by setting: (50 μg α-thrombin applied) 0.00; (100 μg α-thrombin applied) 0.00; (200 μg α-thrombin applied) 0.00.

As for PFAPTL, the “binding of thrombin” value is “not”. Further, where the note is “50 μg α-thrombin applied”, the “Absorbance, 280 nm 1M NaCl Eluate” value is recorded as “np” and the “Absorbance, 280 nm 2% Acetic Acid” value is “np”. Under “100 μg α-thrombin applied”, the “Absorbance, 280 nm 1M NaCl Eluate” value is “np” and the “Absorbance, 280 nm 2% Acetic Acid” value is given as “np”. Moreover, for the setting “200 μg α-thrombin applied”, the “Absorbance, 280 nm 1M NaCl Eluate” value is on record as “np” and the “Absorbance, 280 nm 2% Acetic Acid” value was “np”.

On to “PFPYAW (not fully specified (C-terminus)) [peptide synthesized on A-Totda-Toyopearl resin]”, for which the “binding of thrombin” value is on record as “bound thrombin”. Also, where the note is “50 μg α-thrombin applied”, the “Absorbance, 280 nm 1M NaCl Eluate” value is “np” and the “Absorbance, 280 nm 2% Acetic Acid” value was 0.50. Also, for the setting “100 μg α-thrombin applied”, the “Absorbance, 280 nm 1M NaCl Eluate” value was “np” and the “Absorbance, 280 nm 2% Acetic Acid” value worked out at 1.05. In addition, under “200 μg α-thrombin applied”, the “Absorbance, 280 nm 1M NaCl Eluate” value is “np” and the “Absorbance, 280 nm 2% Acetic Acid” value is 1.10.

Regarding “PFPYGW (not fully specified (C-terminus)) [peptide synthesized on A-Totda-Toyopearl resin]”, the “binding of thrombin” value is listed as “bound thrombin”. Where the note is “50 μg α-thrombin applied”, the “Absorbance, 280 nm 1M NaCl Eluate” value is “np” and the “Absorbance, 280 nm 2% Acetic Acid” value came to 0.47. For the same substance, where the note is “100 μg α-thrombin applied”, the “Absorbance, 280 nm 1M NaCl Eluate” value is listed as “np” and the “Absorbance, 280 nm 2% Acetic Acid” value turned out to be 0.79. Further, under “200 μg α-thrombin applied”, the “Absorbance, 280 nm 1M NaCl Eluate” value is reported as “np” and the “Absorbance, 280 nm 2% Acetic Acid” value is recorded as 1.37.

As to “PFPYVW (not fully specified (C-terminus)) [peptide synthesized on A-Totda-Toyopearl resin]”, the “binding of thrombin” value is “bound thrombin”. Further, for the setting “50 μg α-thrombin applied”, the “Absorbance, 280 nm 1M NaCl Eluate” value is listed as “np” and the “Absorbance, 280 nm 2% Acetic Acid” value is recorded as 2.82. For the setting “100 μg α-thrombin applied”, the “Absorbance, 280 nm 1M NaCl Eluate” value is given as “np” and the “Absorbance, 280 nm 2% Acetic Acid” value was found to be 2.14. In addition, for the setting “200 μg α-thrombin applied”, the “Absorbance, 280 nm 1M NaCl Eluate” value is on record as “np” and the “Absorbance, 280 nm 2% Acetic Acid” value came out at 3.32. For the setting “50, 100 and 200 μg α-thrombin”, the “dose dependence of thrombin in the acid eluant (in words)” value is reported as “not in a dose dependent manner”.

On to “RQLWQSH [RQLWGSH, variant of QLWGSH with added amino-terminal arginine, on A-Totda-Toyopearl resin]”, for which the “binding of thrombin” value is on record as “enhanced binding”. Also, where the note is “50 μg α-thrombin applied”, the “Absorbance, 280 nm 1M NaCl Eluate” value is “np” and the “Absorbance, 280 nm 2% Acetic Acid” value came out at 0.75. Also, for the setting “100 μg α-thrombin applied”, the “Absorbance, 280 nm 1M NaCl Eluate” value is on record as “np” and the “Absorbance, 280 nm 2% Acetic Acid” value worked out at 1.49. Under “200 μg α-thrombin applied”, the “Absorbance, 280 nm 1M NaCl Eluate” value is “np” and the “Absorbance, 280 nm 2% Acetic Acid” value came out at 2.83.

As for “SVRPFL (not fully specified (C-terminus)) [peptide synthesized on A-Totda-Toyopearl resin]”, the “binding of thrombin” value is listed as “bound thrombin”. Also, where the note is “50 μg α-thrombin applied”, the “Absorbance, 280 nm 1M NaCl Eluate” value is given as “np” and the “Absorbance, 280 nm 2% Acetic Acid” value worked out at 0.57. Under “100 μg α-thrombin applied”, the “Absorbance, 280 nm 1M NaCl Eluate” value is listed as “np” and the “Absorbance, 280 nm 2% Acetic Acid” value is given as 0.71. For the same substance, under “200 μg α-thrombin applied”, the “Absorbance, 280 nm 1M NaCl Eluate” value is listed as “np” and the “Absorbance, 280 nm 2% Acetic Acid” value worked out at 2.06.

Consider “VFPYAW (not fully specified (C-terminus)) [peptide synthesized on A-Totda-Toyopearl resin]”, for which the “binding of thrombin” value was “bound thrombin”. Also, where the note is “50 μg α-thrombin applied”, the “Absorbance, 280 nm 1M NaCl Eluate” value amounted to 0.16 and the “Absorbance, 280 nm 2% Acetic Acid” value is listed as 1.48. For the setting “100 μg α-thrombin applied”, the “Absorbance, 280 nm 1M NaCl Eluate” value is given as 0.18 and the “Absorbance, 280 nm 2% Acetic Acid” value stood at 1.57. Where the note is “200 μg α-thrombin applied”, the “Absorbance, 280 nm 1M NaCl Eluate” value is “np” and the “Absorbance, 280 nm 2% Acetic Acid” value was 3.59.

In the case of “VFPYGW (not fully specified (C-terminus)) [peptide synthesized on A-Totda-Toyopearl resin]”, the “binding of thrombin” value is reported as “bound thrombin”. For the same substance, for the setting “50 μg α-thrombin applied”, the “Absorbance, 280 nm 1M NaCl Eluate” value is “np” and the “Absorbance, 280 nm 2% Acetic Acid” value was found to be 0.88. In addition, for the setting “100 μg α-thrombin applied”, the “Absorbance, 280 nm 1M NaCl Eluate” value was “np” and the “Absorbance, 280 nm 2% Acetic Acid” value was found to be 1.46. For the same substance, where the note is “200 μg α-thrombin applied”, the “Absorbance, 280 nm 1M NaCl Eluate” value is recorded as “np” and the “Absorbance, 280 nm 2% Acetic Acid” value is listed as 2.01.

Regarding “VFPYVW (not fully specified (C-terminus)) [peptide synthesized on A-Totda-Toyopearl resin]”, the “binding of thrombin” value was “bound thrombin”. Further, under “50 μg α-thrombin applied”, the “Absorbance, 280 nm 1M NaCl Eluate” value is on record as “np” and the “Absorbance, 280 nm 2% Acetic Acid” value turned out to be 0.81. Further, where the note is “100 μg α-thrombin applied”, the “Absorbance, 280 nm 1M NaCl Eluate” value is listed as “np” and the “Absorbance, 280 nm 2% Acetic Acid” value worked out at 1.21. Where the note is “200 μg α-thrombin applied”, the “Absorbance, 280 nm 1M NaCl Eluate” value is “np” and the “Absorbance, 280 nm 2% Acetic Acid” value came to 1.81.

“VTPFAV (not fully specified (C-terminus)) [peptide synthesized on A-Totda-Toyopearl resin]”: the “Absorbance, 280 nm 1M NaCl Eluate” value is on record as “np” (50 μg α-thrombin applied), “np” (100 μg α-thrombin applied) and “np” (200 μg α-thrombin applied). In addition, the “Absorbance, 280 nm 2% Acetic Acid” value runs as follows: (50 μg α-thrombin applied) 0.00; (100 μg α-thrombin applied) 0.00; (200 μg α-thrombin applied) 0.00.

With “YTPFAV (not fully specified (C-terminus)) [peptide synthesized on A-Totda-Toyopearl resin]”, the “binding of thrombin” value is given as “bound thrombin”. Also, for the setting “50 μg α-thrombin applied”, the “Absorbance, 280 nm 1M NaCl Eluate” value is given as “np” and the “Absorbance, 280 nm 2% Acetic Acid” value was 0.16. In addition, under “100 μg α-thrombin applied”, the “Absorbance, 280 nm 1M NaCl Eluate” value is reported as “np” and the “Absorbance, 280 nm 2% Acetic Acid” value turned out to be 0.28. Besides, where the note is “200 μg α-thrombin applied”, the “Absorbance, 280 nm 1M NaCl Eluate” value was “np” and the “Absorbance, 280 nm 2% Acetic Acid” value is 0.34.
